Literature values as cited in PMC2645917 (Journal of medicinal chemistry, 2008).

Details: in vivo, iv

exenatide
Half-life after i.v. injection: 26 min
